# Laboratory results from US7029861B1, “LPS-response gene compositions and methods” (Board of Regents, The University of Texas System, priority 1998, dated 2006).
# Positions count from the first letter of the chain named. In names and notes the source's numbering stands. Entries after “also recorded” stand apart in the source; their conditions may differ.
# B1: Ectodomain: membrane-anchored truncated Tlr4, residues 22–660, lacking the entire cytoplasmic domain (protein)
# chain: PGSLNPCIEVVPNITYQCMDQKLSKVPDDIPSSTKNIDLSFNPLKILKSYSFSNFSELQWLDLSRCEIETIEDKAWHGLHHLSNLILTGNPIQSFSPGSFSGLTSLENLVAVETKLASLESFPIGQLITLKKLNVAHNFIHSCKLPAYFSNLTNLVHVDLSYNYIQTITVNDLQFLRENPQVNLSLDMSLNPIDFIQDQAFQGIKLHELTLRGNFNSSNIMKTCLQNLAGLHVHRLILGEFKDERNLEIFEPSIMEGLCDVTIDEFRLTYTNDFSDDIVKFHCLANVSAMSLAGVSIKYLEDVPKHFKWQSLSIIRCQLKQFPTLDLPFLKSLTLTMNKGSISFKKVALPSLSYLDLSRNALSFSGCCSYSDLGTNSLRHLDLSFNGAIIMSANFMGLEELQHLDFQHSTLKRVTEFSAFLSLEKLLYLDISYTNTKIDFDGIFLGLTSLNTLKMAGNSFKDNTLSNVFANTTNLTFLDLSKCQLEQISWGVFDTLHRLQLLNMSHNNLLFLDSSHYNQLYSLSTLDCSFNRIETSKGILQHFPKSLAFFNLTNNSVACICEHQKFLQWVKEQKQFLVNVEQMTCATPVEMNTSLVLDFNNSTCYMYKTIISVSVVSVIVVSTVAFLIYHFYFHLILIA
# modifications: left off: small tags and cut ends
# notes: membrane-anchored truncated Tlr4, residues 22–660, lacking the entire cytoplasmic domain
# B2: Tlr4^Lps-n: flag-tagged full-length normal mouse Tlr4, residues 22–835, expressed in RAW 264.7 cells (protein)
# chain: PGSLNPCIEVVPNITYQCMDQKLSKVPDDIPSSTKNIDLSFNPLKILKSYSFSNFSELQWLDLSRCEIETIEDKAWHGLHHLSNLILTGNPIQSFSPGSFSGLTSLENLVAVETKLASLESFPIGQLITLKKLNVAHNFIHSCKLPAYFSNLTNLVHVDLSYNYIQTITVNDLQFLRENPQVNLSLDMSLNPIDFIQDQAFQGIKLHELTLRGNFNSSNIMKTCLQNLAGLHVHRLILGEFKDERNLEIFEPSIMEGLCDVTIDEFRLTYTNDFSDDIVKFHCLANVSAMSLAGVSIKYLEDVPKHFKWQSLSIIRCQLKQFPTLDLPFLKSLTLTMNKGSISFKKVALPSLSYLDLSRNALSFSGCCSYSDLGTNSLRHLDLSFNGAIIMSANFMGLEELQHLDFQHSTLKRVTEFSAFLSLEKLLYLDISYTNTKIDFDGIFLGLTSLNTLKMAGNSFKDNTLSNVFANTTNLTFLDLSKCQLEQISWGVFDTLHRLQLLNMSHNNLLFLDSSHYNQLYSLSTLDCSFNRIETSKGILQHFPKSLAFFNLTNNSVACICEHQKFLQWVKEQKQFLVNVEQMTCATPVEMNTSLVLDFNNSTCYMYKTIISVSVVSVIVVSTVAFLIYHFYFHLILIAGCKKYSRGESIYDAFVIYSSQNEDWVRNELVKNLEEGVPRFHLCLHYRDFIPGVAIAANIIQEGFHKSRKVIVVVSRHFIQSRWCIFEYEIAQTWQFLSSRSGIIFIVLEKVEKSLLRQQVELYRLLSRNTYLEWEDNPLGRHIFWRRLKNALLDGKASNPEQTAEEEQETATWT
# modifications: left off: small tags and cut ends
# notes: flag-tagged full-length normal mouse Tlr4, residues 22–835, expressed in RAW 264.7 cells
# B3: Tlr4^Lps-d: flag-tagged full-length mouse Tlr4 with P712H mutation, residues 22–835, expressed in RAW 264.7 cells (protein)
# chain: B2 chain with P691H
# modifications: left off: small tags and cut ends
# notes: flag-tagged full-length mouse Tlr4 with P712H mutation, residues 22–835, expressed in RAW 264.7 cells
# B4: Tlr4^Lps-d Cyt. Dom.: membrane-associated Tlr4 cytoplasmic domain with P712H, residues 630–835, with flag peptide, lacking the ectodomain (protein)
# chain: TIISVSVVSVIVVSTVAFLIYHFYFHLILIAGCKKYSRGESIYDAFVIYSSQNEDWVRNELVKNLEEGVPRFHLCLHYRDFIHGVAIAANIIQEGFHKSRKVIVVVSRHFIQSRWCIFEYEIAQTWQFLSSRSGIIFIVLEKVEKSLLRQQVELYRLLSRNTYLEWEDNPLGRHIFWRRLKNALLDGKASNPEQTAEEEQETATWT
# modifications: left off: small tags and cut ends
# notes: membrane-associated Tlr4 cytoplasmic domain with P712H, residues 630–835, with flag peptide, lacking the ectodomain
# B5: Tlr4^Lps-n Cyt. Dom.: membrane-associated Tlr4 cytoplasmic domain, normal sequence, residues 630–835, with flag peptide, lacking the ectodomain (protein)
# chain: B4 chain with H83P
# modifications: left off: small tags and cut ends
# Assays:
# [1] = molecular target: intact Tlr4 protein, endogenous in RAW 264.7 macrophages (mouse) (UniProt Q9QUK6); assay: cell-based or functional assay
# [2] = molecular target: flag-tagged Tlr4^Lps-d, residues 22-835 (P712H), expressed in RAW 264.7 cells (mouse) (UniProt Q9QUK6); assay: saturation isotherm of 125I-M2 on transfected RAW 264.7 cells, nonlinear regression
# [3] = molecular target: flag-tagged Tlr4^Lps-d, residues 22-835 (P712H), expressed in RAW 264.7 cells (mouse) (UniProt Q9QUK6); assay: saturation isotherm of 125I-M2 (50 ng/ml to 20 ug/ml) on transfected RAW 264.7 cells
# [4] = molecular target: flag-tagged Tlr4^Lps-n cytoplasmic domain construct, residues 630-835 (mouse) (UniProt Q9QUK6); assay: equilibrium specific binding of M2 at a fixed concentration to RAW 264.7 clones, mean of 7 clones
# [5] = molecular target: flag-tagged Tlr4^Lps-d cytoplasmic domain construct, residues 630-835 (P712H) (mouse) (UniProt Q9QUK6); assay: equilibrium specific binding of M2 at a fixed concentration to RAW 264.7 clones, mean of 8 clones
# [6] = molecular target: flag-tagged Tlr4 ectodomain construct, residues 22-660 (no cytoplasmic domain) (mouse) (UniProt Q9QUK6); assay: equilibrium specific binding of M2 at a fixed concentration to RAW 264.7 clones, mean of 9 clones
# [7] = molecular target: flag-tagged Tlr4^Lps-d, residues 22-835 (P712H), expressed in RAW 264.7 cells (mouse) (UniProt Q9QUK6); assay: equilibrium specific binding of M2 at a fixed concentration to RAW 264.7 clones, mean of 10 clones
# [8] = molecular target: flag-tagged Tlr4^Lps-n, residues 22-835, expressed in RAW 264.7 cells (mouse) (UniProt Q9QUK6); assay: as above
# [9] = test system: RAW 264.7 cells; assay: LPS-induced TNF production (EC50 shift) in RAW 264.7 clones expressing Tlr4 constructs, L-929 cytotoxicity assay; assay type: cell-based, murine; details: for effect on LPS signaling (in words): over-expression of truncated constructs in RAW 264.7 cells; for leftward shift of the LPS EC50 curve (augmentation of the LPS response): over-expression in RAW 264.7, TNF production; for rightward EC50 shift (inhibition of LPS signaling): membrane-associated cytoplasmic domain constructs lacking the entire ectodomain
# Method: FIG. 15C. Composite analysis of the shift in EC50 caused by expression of Tlr4^Lps-n and Tlr4^Lps-d in RAW 264.7 cells. Each point represents an EC50 determination performed on ten independent clones at the stated LPS concentration. For each clone, four replicate assays were performed at each concentration. […] Transfected macrophages were plated in 24 well plates at a density of 5×10^5 cells per well, and covered with 1.0 ml of DMEM supplemented with 10% FBS. LPS was added to each well at the concentration indicated. After 15 hours of incubation the medium was harvested, and TNF concentration was assayed in the standard L-929 cytotoxicity system^36, using cycloheximide at a concentration of 100·g/ml to potentiate killing. After 15 hours of exposure to diluted macrophage medium or to mouse TNF applied at a range of 8 standard concentrations, the number of viable cells was determined by staining with crystal violet. A standard curve relating % cytotoxicity to TNF concentration (not shown) was generated using Prism 3.0, and was based on an assumption of sigmoidicity. Variance among replicate samples was typically beneath 5% of the mean, and departures of individual samples from the sigmoid plot were typically smaller still. Linear estimates of TNF concentration in unknown samples were based on non-linear interpolation from the standard curve (also performed using Prism 3.0). The curves shown were generated assuming sigmoidicity of response with variable slope for each curve, and further assigning a maximum response value of 1760 pg TNF, which yielded an optimal fit for the most responsive curve. Error bars indicate standard deviation among clones at each LPS concentration. Log EC50 values and standard error values are shown in the inset table.
# FIG. 15D. Shifts of the log EC50, determined for individual clones. A more conservative approach, in which log EC50 values were determined for individual clones transfected with vector alone, or with the Tlr4^Lps-n or Tlr4^Lps-d constructs. The log EC50 data were then represented as a scatter plot, in which each point represents the log EC50 determination of a single clone (confidence limits not shown for the sake of simplicity), and is derived from 24 separate TNF assays performed on samples stimulated over a 10^4-fold range of LPS concentration (100 pg/ml to 1·g/ml, as well as an unstimulated control). In most instances, two determinations of log EC50 were made independently for each clone. The mean and standard error of each cluster is shown in the inset, together with p values defining the likelihood that the EC50 displacements are attributable to chance. Data were analyzed by means of a one-tailed t test, using Welch's correction for unequal variance.
# In order to directly examine the role of Tlr4 as a transducer of the LPS signal in macrophages, the inventors expressed the normal mouse protein—and various mutant forms—in RAW 264.7 macrophages have been expressed (FIG. 14; Table VIII). These cells of murine origin are highly responsive to LPS, and are known to express the Tlr4 mRNA (Poltorak et al, 1998b). Unlike cell lines of non-myeloid origin (i.e., 293 cells or CHO cells), they express all proteins required for the elicitation of a biologically relevant response to LPS (e.g., TNF production). As such, they may be used to determine whether Tlr4 is a limiting factor in the initiation of an LPS signal, and to examine the mechanism by which the Tlr4^Lps-d allele exerts its dominant inhibitory effect on signaling. This was determined by performing more than 3,000 assays of TNF production, induced over an extensive range of LPS concentrations in numerous stable clones, since individual clones show considerable background variability in LPS responses. Moreover, because culture conditions can affect the sensitivity of the TNF assay and production of TNF by LPS-stimulated cells, all transfected and control clones were induced and assayed in parallel. […]
molecule,measurement,setting,value
"flag-tagged Tlr4^Lps-d cytoplasmic domain construct, residues 630-835 (P712H) (from UniProt Q9QUK6 630-835) (receptor)",shift of the LPS EC50 for TNF production in RAW 264.7 clones,[1],39 fold
"flag-tagged Tlr4^Lps-n cytoplasmic domain construct, residues 630-835 (from UniProt Q9QUK6 630-835) (receptor)",shift of the LPS EC50 for TNF production in RAW 264.7 clones,[1],4 fold
monoclonal antibody M2 (obtained from Sigma),binding sites per cell (binding sites per cell),[2],28100
same,% saturation of the surface receptor at the highest antibody concentration,[3],56.4%
same,Copies/cell,[4],12000 copies/cell
same,Copies/cell,[5],9900 copies/cell
same,Copies/cell,[6],14000 copies/cell
same,Copies/cell,[7],20000 copies/cell
same,Copies/cell,[8],21000 copies/cell
B1,effect on LPS signaling (in words),[9]; listed as Tlr4 ectodomain,"inhibited the LPS response only weakly, if at all; also recorded: fails to inhibit LPS signaling"
same,effect on LPS signaling (in words),[9]; listed as truncated version of the Tlr4 protein,only a weak inhibitory effect on LPS signaling
B2,leftward shift of the LPS EC50 curve (augmentation of the LPS response),[9]; composite EC50 analysis,30 fold
same,leftward shift of the LPS EC50 curve (augmentation of the LPS response),"[9]; composite EC50 analysis, listed as Tlr4",about 30 fold
B3,composite range of responsiveness (mean EC50 of Tlr4^Lps-d transfected clones/mean EC50 of Tlr4^Lps-n transfected clones),[9]; LPS EC50 measured for each individual clone,1120 fold
same,"difference in the mean response at the EC50 point, Tlr4^Lps-n vs Tlr4^Lps-d over-expression",[9]; composite EC50 analysis,"74,000 fold"
same,shift to the right of the LPS EC50 curve (suppression of the LPS response),"[9]; composite EC50 analysis, full-length protein in RAW 264.7, TNF production",2600 fold
B4,rightward EC50 shift (inhibition of LPS signaling),[9],39 fold
B5,rightward EC50 shift (inhibition of LPS signaling),[9],4 fold
